Experimental data reported in PMC3600089 (ACS chemical biology, 2012).
One block for each binder: values may come before it.

B2: GST-TACC3-CT E629A (domain or fragment)
chain: not shown

How the values were obtained:
[1] = target: T1, His-ARNT PAS-B (human ARNT residues 356-470) (human, UniProt P27540 356-470); experiment: pull-down
[2] = target: His-ARNT2 PAS-B (human ARNT2 residues 330-444) (human, UniProt Q9HBZ2 330-444); experiment: pull-down
[3] = target: ARNT2 PAS-B K391A (human, UniProt Q9HBZ2 330-444, K391A); experiment: pull-down
[4] = target: ARNT2 PAS-B E372A (human, UniProt Q9HBZ2 330-444, E372A); experiment: pull-down
[5] = target: T1, His-ARNT PAS-B (human ARNT residues …); experiment: AlphaScreen or HTRF
[6] = target: B2; experiment: AlphaScreen or HTRF

binding result [1]: binds
binding result [2]: binds
binding result [3]: binds
binding result [4]: binds
B1: GST-TACC3-CT (murine TACC3 residues 561-631) (domain or fragment)
chain: not shown

Binder: B2
binding result [5]: binds

IC50 [6]: 2000 to 3000 nM
B3: untagged ARNT PAS-B (domain or fragment)
chain: not shown
